Data: patent publication US20210347821A1 (published 2021)
Where no end group is shown, it is not given here. The star is where a group is joined. NPEG4 = 4-unit NPEG linker joining two HWLKV peptides through their N-termini, carries the CPP on its nitrogen; Biotin = O=C1N[C@H]2[C@H](CS[C@H]2CCCCC(=O)*)N1

B1: N-terminally biotinylated TAT-P4-(C5)2 (peptide)
peptide 1: Biotin-YGRKKRRQRRR
peptide 2: HWLKV
modifications: not fully specified
notes: also called Biotin-TAT-P4-(C5)2
B2: TAT11-PEG4-(DATC5)2 (peptide)
peptide 1: YGRKKRRQRRR
peptide 2: NPEG4-HWLKV
modifications: not fully specified (C-terminus)
notes: Branched compound: two HWLKV peptides joined through their N-termini by a 4-unit NPEG linker that carries the CPP; also called TAT-P4-(C5)2
B3: MAP-P4-(C5)2 (peptide)
peptide 1: KLALKLALKALKAALKLA
peptide 2: HWLKV
modifications: not fully specified
notes: also called MAP-NPEG4-(HWLKV)2; MAP-peptide
B4: TAMRA-YGRKKRRQRRR-PEG4-(HWLKV)2 (peptide)
peptide 1: YGRKKRRQRRR
peptide 2: HWLKV
modifications: not fully specified; N-terminus linked to the NPEG4 linker that joins the two copies; TAMRA on the N-terminus of the TAT sequence; conjugated to the NPEG4 linker
notes: also called TMR-TAT-P4-(C5)2; TMR-TAT11-P4-(C5)2
B5: PNT-P4-(C5)2 (peptide)
peptide 1: RQIKIWFQNRRMKWKK
peptide 2: HWLKV
modifications: not fully specified
notes: Branched compound as TAT-P4-(C5)2, with Penetratin as CPP; also called Pent-P4-(C5)2; PNT-peptide

Columns and labels:
[1] = biological target: T1, GFP-PICK1 A87L (UniProt Q9EP80 1-416); test: pull-down from HEK293 cells
T1 construct: also called PDZ deficient mutant GFP-PICK1 A87L; not shown: GFP tag
T1 sequence (Q9EP80 whole entry A87L): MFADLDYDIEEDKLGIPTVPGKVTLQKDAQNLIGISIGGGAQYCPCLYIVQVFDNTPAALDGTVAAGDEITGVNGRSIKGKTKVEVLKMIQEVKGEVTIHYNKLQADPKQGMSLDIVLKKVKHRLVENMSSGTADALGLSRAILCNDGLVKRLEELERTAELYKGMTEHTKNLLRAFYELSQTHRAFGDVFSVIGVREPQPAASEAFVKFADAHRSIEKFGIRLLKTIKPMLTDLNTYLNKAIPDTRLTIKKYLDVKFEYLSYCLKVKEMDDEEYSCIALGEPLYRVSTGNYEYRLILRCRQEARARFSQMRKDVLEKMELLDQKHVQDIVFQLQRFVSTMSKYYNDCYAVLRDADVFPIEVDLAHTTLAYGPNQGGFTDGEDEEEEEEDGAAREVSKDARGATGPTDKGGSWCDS

[2] = biological target: T2, PICK1 (endogenous, mouse spinal cord) (mouse, UniProt Q62083 1-416); test: pull-down from mouse spinal cord after intrathecal administration
T2 construct: also called PICK1 protein
T2 sequence (Q62083 whole entry): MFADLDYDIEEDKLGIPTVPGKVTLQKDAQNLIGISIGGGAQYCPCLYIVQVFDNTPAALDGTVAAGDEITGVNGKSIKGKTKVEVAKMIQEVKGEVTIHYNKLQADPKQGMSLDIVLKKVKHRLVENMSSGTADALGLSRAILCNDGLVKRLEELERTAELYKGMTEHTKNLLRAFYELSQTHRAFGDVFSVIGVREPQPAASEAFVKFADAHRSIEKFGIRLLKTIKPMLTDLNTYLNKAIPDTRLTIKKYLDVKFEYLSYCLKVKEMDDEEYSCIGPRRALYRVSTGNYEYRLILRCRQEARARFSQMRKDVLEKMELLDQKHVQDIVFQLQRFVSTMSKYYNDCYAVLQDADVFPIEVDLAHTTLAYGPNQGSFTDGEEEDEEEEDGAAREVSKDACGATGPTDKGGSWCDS

[3] = biological target: T3, Protein Interacting with C Kinase-1 (PICK1), purified recombinant (UniProt Q9EP80 1-416); test: fluorescence polarization competition, tracer 5FAM-TAT-(C5)
T3 construct: also called purified PICK1
T3 sequence (Q9EP80 whole entry): as the sequence (Q9EP80 whole entry A87L) above, with L87A counted along it

[4] = biological target: T3, Protein Interacting with C Kinase-1 …; test: fluorescence polarization competition, tracer 5-FAM-TAT-C5
[5] = biological target: T1, GFP-PICK1 A87L; test: colocalization in heterologous cells

Row | Binder | Fold affinity change (against TAT-P4-(C5)2) [4] | Ki [4] | also measured
1 | B1 | – | – | binding result [1]: no binding; binding result [2]: binds
2 | B2 | 1 fold | 4 nM | fold shift in affinity [3]: 301 fold
3 | B3 | 0.8 fold | 5.1 nM | –
4 | B4 | – | – | binding result [5]: no binding
5 | B5 | 1.7 fold | – | –
